Consider 41 sequences from the nanobody polyreactivity screen of Harvey et al. (2022).

The nature of the series: yeast display, Sf9 membrane polyspecificity reagent, FACS + sequencing; frameworks hold sequencing errors. The procedure, abridged: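 A nanobody's polyreactivity label depends on the gate it was sorted from. Yeast display cells were stained with 10% biotinylated, detergent-solubilized Sf9 membrane reagent for 1 hour at 4 °C, enriched on streptavidin microbeads and sorted by FACS. The low and high (top ~1%) gates were set on anti-HA fluorescence for expression and streptavidin fluorescence for reagent binding.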
Take “QVQLVESGGGLVQAGGSLRLSCAASGFIFTLYAMGWYRQAPGKERELVASIRGSGGNTYYADSVKGRFTISRDNAKNTVYLQMNSLKPEDTAVYYCAARTYRRPYYSWGQGTQVTVSS”: the “polyreactivity (PSR sort gate)” value is on record as “high polyreactivity”.
For “QVQLVESGGGLVQAGGSLRLSCAASGYIFDVYAMGWYRQAPGKERELVAAISSSGGRTYYADSVKGRFTISRDTAKNTVYLQMNSLKPEDTAVYYCAAKTHSRTKVYTADYWGQGTQVTVSS” the value was “high polyreactivity”; for “QVQLVESGGGLVQAGGSLRISCAASGRIFRVNGMGWSRQEPGKESELVAAIRRSGGSTYYADSVKGRFTISRDYAKKSVYLQMNSLKPEDTAVYFCAAAVRQSSYTRYDSWGQGTQVTVSS”, “high polyreactivity”; for “QVHLVESGGGLVQAGGSLRLSCAASGRTFIIYAMGWYRPAPGKERELVADISSGGSTYYADSVKGRFTISRDNAKNTVYLQMNIVKPEDTAVYYCAAQSWYFPIGYDYWGQGTQVTVSS”, “low polyreactivity”.
Regarding “QVQLVESGGGLVQAGGSLRLSCAASGRTFYYYTMGWYRQAPGKERELVAAITHGGSTYYADSVKGRFTISRDNAKNTVYLQMNSLKPEDTAVYYCNAVYHYPYEYWGQGTQVTVSS”, the “polyreactivity (PSR sort gate)” value is reported as “high polyreactivity”.
In the case of “QVQLVESGGGLVQAGGSLRLSCAASGLTFYEYAMGWYRQAPGKERELVAAISWRGDSTHYADSVKGRFTISRDNAKNTVYLQMNSLKPEDTAVYYCNTRRLHGWLYGYEYWGQGTQVTVSS”, the “polyreactivity (PSR sort gate)” value was “low polyreactivity”.
For “QVQLVESGGGLVQAGGRLRLSCAASGIIFVVNDMGWYRQAPGKEWELVADISDSGGSTNYADSVKGRFTISRDKAKNTVYLQMNSLKPEDTAVYYCAADSADPTEYDYWGQGTQVTVSS” the value was “low polyreactivity”.
Turning to “QEQLVESGGGLVQAGGTLRLSCDASVSTQWYNAMGWYRQAPGKERELVATITAGGGSTYYADSVKGRFTISRDNAKNTVYLQMNSLKREDTAVYYCATRYTPAQLDYWGQGTQVTVSS”, the “polyreactivity (PSR sort gate)” value is listed as “low polyreactivity”.
Next, “QVQLVESGGGLVQAGGSLRLSCAASGFIFYKYAMGWYRQAPGKERELVAAITSSAGSTYYADSVKGRFTISRDNAKNTVYLQMNSLKPEDTAVYYCAADFHVDYVYWGQGTQVTVSS”: “high polyreactivity”; “QVQLVESGGGLVQGGGSLRLSCAASGINFGLYTMGWYRQAPGKERELVAAISDSGGRTYYADSVKGRFTISRDNAQNTVYLQMNSLKPEDTSVYYCAAEFWYVWEYNYWGQGTQVTVSS”: “high polyreactivity”; “QVQLVESGGGLVQAGGSLRLSCAASGSILDSYAMGWDRQAPGKERELVAASTRSGVRTYYADSVKGRFTISRDNAKNTVYLQMNSLKPEDTAVYYCAARVTRYRDLNYWGQGTQVTVSS”: “high polyreactivity”.
For “QVQLVESGGGLVQAGGSLRLSCAASGLTFGDYTMGWYRQAPGKERELVAAITWSGASTYYADSVKGRFTISRDNAKNTVYLQMNSLKPEDTAVYYCADERTPSYRAYDYWGQGTKVTVSS” the value was “low polyreactivity”; for “QVQLVESGGGLVQAGGSLRLSCAASGYIFWGNAMGWYRQAPGKERELVAAISYIGGSTYYADSVKGRFTISRDNAKNTVYLQMNSLKPEDTAVYYCAKRVLHQPYYHGVSGRRYDYWGQGTQVTVSS”, “high polyreactivity”; for “QVQLVESGGGLVQAGGTLRFSCAASGLTIDRYAMGWYRQAPGKERELVAAISFTGDRTYYADSVKGRFTISRDNAKNTVYLQMNSLKPEDTAVYYCAVRRYGYRKYDSWGQGTQVTVSS”, “high polyreactivity”.
Next, “QVQLVESGGGLVQAGGSLRISCAASGSPIWNYVMRWYRKAPGKVRDLVAAISIVGSTYYADSVKGRFTSSRDNAKNTVYFELNILKPEDTAVNYCNAGYFGGSNASKVRLSYDHWGQGTDVTVSS”: “low polyreactivity”; “QVQLVESGGGLVQAGRSLRISCAASGSIFVNNAMGWYRQAPGKERELVAAISLSGGSTYYADSVTGRFTISRDTAKNTVYLQMTSLKPEDTAVYYCATRRSHYGKYDYWGQGTQVTVSS”: “high polyreactivity”.
With “QVQHVESGGGLVQAGGSLRLSCAASVIIFLWYAMGRYRQAPGKERELGAAISRSGSSTYYADSVKGRFTISRDNAKNTVYLQMNSLKPEDTAVYYCAAAYYSKRSCRFDYWGQGTQVTVSS”, the “polyreactivity (PSR sort gate)” value is on record as “high polyreactivity”.
Consider “QVQLVESGGGLVQAGGSLRLSCAASGNTLGYYAMGWYRQAAGKARELVATICDDGTTYYADSVKGRFTISRDNAMNTVYLQMNSLSPEETAVYYCASVGSAQYSMDYWGDGTQVTVSS”, for which the “polyreactivity (PSR sort gate)” value is listed as “low polyreactivity”.
For “QVQLVESGGGLVQAGGRLRLSCAASGLTFKSYTMGLYRQAPGKERELVATISGSGTRTYYADSVKGRYTISRDNAKNTVFLQMNSLKPEDTAVYYCARVILYNNYFRYSGYRYDYWGQGTQGTVSS” the value was “high polyreactivity”.
Next, “QVQLVESGGGLVQAGGSLRLSCAASGRTFSYYAMGWYRQAPGKERELVASINWSGGSTYYADSVKGRFTISRDNAKNTVYLQMNSLKPEDTAVYYCAADSWPFGYYYWGQGTQVTVSS”: “high polyreactivity”; “QVQLVESGGGLVQAGGSLRLSCAASGRIFARYAMGWYRQAPGKERELVAAITKSVGSTYYADSVKGRFTNSRDNAKNTVYLQMNSLKPEDTAVYYCNAVARGYGYDYWGQGTQVTVSS”: “high polyreactivity”; “QVQLVESGGGLVQAGGSLRLSCAASGSIFTPYAMGWYRQAPGKERELVADIDASGGGTYADSVKGRFTISRDNAKNTVYLQMNSLKPEDTAVFYCNADTGIWDYRFVDRDYWGQGTQVTVSS”: “low polyreactivity”.
For “QVQLVESGGGLVQAGGSLRLSCAACGRISTAYAMGGYRQAPGTERELVAAISSGTSTTYADSVKGRFTISRDNAKNTVYLQMNSLKPEDTAVYYCAAPGRYGEYDYWGQGTQVTVSS” the value was “low polyreactivity”.
For the sequence “QVQLVESGGGLVQAGGSLRLSCAASGRIFEYYAMGWYRQAPGKERELVAAINTGGNTYYADSVKGRFTISRDNAKNTVYLLMNSLKPEDTAVYYCATYPIWYGGYLSGTDYDYWGQGTQVTVSS”, the “polyreactivity (PSR sort gate)” value is recorded as “low polyreactivity”.
For “QVQLVESGGGLVQAGGSLRLSCAASGRTFIWYVMGWYRQAPGKERELVATISYGGITYYADSVKRRFTISRDNAKNTVYLQMNSLKPEDTAVYYCAAYKYTHKPHGDYWGQGTQVTVSS”, the “polyreactivity (PSR sort gate)” value was “high polyreactivity”.
For the sequence “QGQRVESGGGLVQAGGSLRLSCAASGFIFSYYTMGWYRQAPGKERELVAAISSTGRTNYADSVKGRFTISRDNAKHTVYLQMNSLKPDDTAFYYCNAAKLSYGPWRGYYKLDVWGQGTQVTVSS”, the “polyreactivity (PSR sort gate)” value is “high polyreactivity”.
For “QVQLVESGGGLVQAGGSLRLSCAAYGSIYSKYAMGWYRQAPGKEREMDAAISWSDGTTYYADSVKGLFTISRDNAKYTVYLQLNSLKPEDTAVYYCNTPPQWLGRYITITFDYWGQGSQVTVSS” the value was “low polyreactivity”; for “QVQLVESGGGLVQAGGSLRLSCAASGRIFQNYAMGWYRQATGKERELVAAIRRSSGRSYYADSVKGRFTISRDNAKNTVYLLMNSLKPEDTAVYYCNAVRGEEYDYWGQGTQVTVSS”, “high polyreactivity”.
As for “QVQLVESGGGLVQAGGSLRLSCAASGITFTRNVMGWYRQAPGKERELVAAISGSGGSTYYADSVKGRFTISRDNAKNTVYLQMNSLKPEDTAVYYCAARSRGGRRYDYWGQGTQVTVSS”, the “polyreactivity (PSR sort gate)” value is listed as “high polyreactivity”.
“QVQLVESGGGLVQAGGSLRLSCAASGFIFTPYAKGWYRQAPGKERELVAAISSGGSTYADSVKGRFTISRDNAKNTVYLQMNSLKPEDTAVYYCAAYYTGYSTTYYYWGQGTQVSVSS”: the “polyreactivity (PSR sort gate)” value is “low polyreactivity”.
Next, “QVQLVESGGGLVQAGGSLRLSCAASGSTFYVNAMGWYRQAPGKERELVAYADSVKGRFTISRDNAKNTVYLQMNSLKPEDTAVYYCNADIEYRPGHGRLGDYDYWGQGTQVTVSS”: “low polyreactivity”.
For “QVQLVESGGGLVQSGGSLRLSCAASGRTFYYYTMGWYRPAPGKVRELVAAIYRVGSTYYADSVKGRFTISRDNAKNTVYLQMNSLKPEDTADYYCNAVLRFGWYWVDYWGQGTQVTVSS” the value was “high polyreactivity”; for “QVQLVESGGGLVQAGGSLRLSCAASGSIFFIYAMGWYRQAPGKERELVAAINDGGGSTYYADSVKGRFTISRDNAKNTVYLLMNSLKPEDTAVYYCAAEWSWGPYRYDYWGQGTQVTVSS”, “high polyreactivity”; for “QVQLVESGGGLVQAGGSLRLSCAASGFIFNHYAMGWYRQAPGKEREFVAAISWSGGSTYYADSVKGRFTISRDNAKNTVYLKMNSLKPEDTAVYYCAASYNGLWHGDYNYWGQGTQVTVSS”, “low polyreactivity”.
For “QVQLVESGGGLVQAGGSLRLSCAASGFTFDANAMGWYRQAPGKERELVAAISWSGGSTYYADSVKGRFTISRDNAKNTVYLQMNSLKPEDTAVYYCAARRYSYVGGQGSDYWGQGTKVTVSS” the value was “high polyreactivity”; for “QGQLVESGGGLVQAGGSLRLSCAASGFTFNYYAMGWSRQAPGKERELVAAISWRGGSTSYADSVKGRFTISRDNAKNTVYLQMNSLKPEDTAVYYCNAGYSGIYYFAGDYWGQGTQVTVSS”, “high polyreactivity”.
“QVQLVESGGGLVQAGGSLRLSCAASGRTFVTYVMGWYRQAPGKEREFVAAIRWSGGRTYYADSVKGRFTISRDNAKNTVYLQMNSLKPEDTAVYYCAAVYYDRSYRYEYWGQGTQVTVSS”: the “polyreactivity (PSR sort gate)” value is recorded as “high polyreactivity”.
In the case of “QVQLVESGGGLVQAGGSLRLTCAASGRIFYPYPMGWYRQAPGKERELVAAIDKGGGSTYYADSVKGRFSISRDNAKNTVYLQMNSLKPEDTAVFYCAAGWEYPYDYWGQGTQVTVSS”, the “polyreactivity (PSR sort gate)” value is given as “low polyreactivity”.
As for “QVQLVETGGGLVQAGGSLRLSCAASGFTFSFYTMGWYRQAPGKERELVAAISRRGGSTYYADSVKGRFTISRDNAKNTVYLQMNSLKPEDTAVYYCPTDHIPSVGDDYWGQGTQVTVSS”, the “polyreactivity (PSR sort gate)” value was “high polyreactivity”.
Next, “QVQLVESGGGLVQAGGSLRLSCAASGFIFDYNAMVWYRQAPGKERELVAAISISGGGTYYADSVKGRFTISRDNAKNTVYLQMNSLKPEDTAVYYCATAGRYDAYDYWGQGTQVTVSS”: “low polyreactivity”; “QVQLQESGGGLVQAVGSLRLSCAASGNISDYYDMGWYRQAPGKERKIVAGIDFGAITNYADSVKGRFTISRDNAKNTEYLQMSSLKPEDTAVYYCAAGVYDWYAYDYWGQGTQVTVSS”: “high polyreactivity”.
